Data from the supplement of paper PMC9170038.

tested on: K4 kissing-loop RNA reporter; experiment: apparent KD of K4 kissing-loop reporter; higher = weaker reporter binding; details: Eterna round: R107; input ligand: FMN 200 uM
Protocol: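 RNA-MaP round R107: designed RNA switches with theophylline, tryptophan, arginine or FMN aptamers are transcribed on-chip within common flanks. They are titrated with a labelled K4 kissing-loop RNA reporter in RNA-MaP buffer (100 mM Tris pH 7.5, 80 mM KCl, 4 mM MgCl2), without ligand or with the indicated ligand. Median apparent KD per design.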
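Further: bound reporter read as fluorescence of individual clusters on recovered sequencing chips by microscopy, with normalized cluster intensities fitted with a binding model.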

Sequence	apparent KD of K4 kissing-loop reporter
AAGUUAUGAUCUGAUACCAGACUUUAUCUUGUUUAUAAGUCAAGUGAUGUUUGACUAUUAGUCCCUUGGCAGCAGUAUUGUUUAA [#18 K4 Theophylline B Same State]	263 nM
AAGAAGAAUGGAAGGAGCGAGCAGAAAUAACCAGUGAUGUUGGAAAGCCUUAUUGCUUAAGCUCAGGUAGGUCGCCAAGAAAAGA [Mostly trial and error]	158 nM
GGAUAGGACAGAGGAUAUGGAGAGUCUACAAAGUAGGCUCAUAAUCCUUGAAUGGAAGUGAUGUUUCCAGAAGGCUGUCCUAUCG [FmnBX 17 - #SwitchBubble #StaticStem #Palindromic]	664 nM
UGCGCUAUGUCCUAAAACGUCCUCCGGGAUACCAGAGUCUUUUUAUUCCCUUGGCAGCUUGAGUGAUGUUUGAUGCCGUUCUUGU [srrevmullin]	364 nM
CGAGUCCUGAGGAGUGAUGUUCCUCGGCCACGAGGACCGGUACGGCCGCCACUCGUUACUCGGGCUUAGUGGCUAGCACUAAGCU [Tirete]	200 nM
GCUCAGGAGUGAUGUUCCAAGUGGUGUUAACGAGGACCGGUACGGCCGCCACUCGAUACGGCCGGACCGUAGGAUAAACUAGAGC [Same State - Tryptophan A (Freestyle 11)]	233 nM
CAGAACUUGUAUAUAGGGUAUAUAAGAGAUACCAGUCAAAUUAAAGACCCUUGGCAGCUCAGGCGAGUGAUGUUCGCAGGCUAAC [Exclusion Theophylline A GF 17]	112 nM
ACGACGCAUAGUGAUACCAGCAUUAUAUGAGUGAUGUUCUACCUAAAAUGGUAAUAAUUAUGCCCUUGGCAGCACUAUGCGUCAG [KL-SSTheoB3]	340 nM
AGUGCACUGUCAGGAUAUAUACAGUGAUGUUGUGUAUGUCGGCAAGUCAAAGACUUGCCAUUCUGUGUAGAAGGGACUGUGUACA [#04 K4 FMN B Exclusion]	544 nM
UGUCAUUGGUCGGAUACCAGUUGAUGACGAAUACGUCAACUGGAGUGAUGUUCCUAAAACAACCCUUGGCAGCCGACCGAUGACU [MAT - Same State Theophlline B - Mod of Eli - D1]	937 nM
AAGGUUUAGCACGAUACCAGCCUGGAGGCCAGUGAUGUUGGCCGAUUUGAACAGAAUUAAGGCCCUUGGCAGCGUCUCUAAAACC [Dierra]	191 nM
GGGUCUGUCGGAAGGAGCGCGCUAUGGAGUGAUGUUCCAUGACCGUACAGCUUACGGUCAGCGCAGGUAGGUCGCCGAUAGCGUU [Geordiar]	153 nM
GGUGCUGUCUGUGCCGCCCUCCUCGUCCCUCGAGGACCGGUACGGCCGCCACUCGAGUGAUGUUCGGGUAGCCAUCCCUGCUAGC [Bdazzled - #19 Exc. Tryptophan A]	647 nM
AAAAUAACCCAGUGAUGUUGGUAUACAGAUACCAGCGACGAAAGUCGCCCUUGGCAGCUGUGGACGUACAAAAUAAGUACGUCCU	986 nM
CUUAAGAUAUGAGUGAUGUUCAUGUCCGAAGGAGCGUGCGAAAGCACAGGUAGGUCGCGGAUGUGAGUGAUGUUCAUGUAAGCGA [KL-XArg-A12 #analogue]	172 nM
UUUAACGAGUGAUGUUCGAAAAGUAAUGGUGAGGAUAUCGUUUUUUCGAGAAGGCACCUCGAAGUGAUACGAAAGUAUCGCUUCG [FMN A 3]	172 nM
AUGUUGAGCGGAAGGAGCGGCUGAACCAGUGAUGUUGGUUAAUCCAAGUGAUGUUGGAAAAGCCAGGUAGGUCGCCGCUUUAUGU [Same State Arg B GF 2]	821 nM
GCCGUAGAUUGAAGGAGCGCCGCGCAUGUCCCGCUUAGUGUAGUGAUGUUACAGUUUCAGCGGCAGGUAGGUCGCAAUCUACGGC	83.4 nM
GGAGGGAUCUCGGCCGCCACUCGUGGGAAAUGGGCCUCAGGGAUAUAGUGAUGUUAUGUAAAGAAGAGGACCGGGAGAAGGAAGG [ExTryptoB.Dg]	319 nM
UGGUUUAGAAGUGAUGUUUCGAUAAGUGAUACCAGACAAAAGAAAGUCCCUUGGCAGCACAAUGAUGCCAAGGAAACGGCAUGAU [Same State Theophylline A GF 1]	118 nM
GCCGUACGCAUGGAUACCAGCAUGCAUAUUAGCUAGUGAUGUUAGCGCUAUGCGAUGCUAUGCCCUUGGCAGCCAUGCGUACGGC	124 nM
AGACUACCACACUGUCAAUAGACAGUGAGGUAGGAUAUGCUGAAAAGCAGAAGGACCAGUGAUGUUGGUAGGUAGUCAAAAUAAA [FmnAX 11 #SwitchBubble #StaticStem #K4Early]	185 nM

Sequence	apparent KD of K4 kissing-loop reporter
GCAGUGAUGUUGCGCGGGUACGGUAGAGUGCGAGGACCGGUACGGCCGCCACUCGUACGGAACUGGCUAAUAUAUGGAUAGGUGA [V]	496 nM
UGUGUUGUUUUGAUGUUUGGUGUUUGUUGGCAGGAUAUCGUAGAGGCGAGAAGGGCUUGGGAGCGGUAUGAGUGAUGUUUGUAGG [deedwrmullin]	373 nM
UUGCGUCUCUGAGGAUAUCAGAACAGAGUGAUGUUCUGUCAACGCCCAGUGAUGUUGGAUGCGAUCUGAGAAGGCAGUGGGCGCG [Same State FMN B GF 10]	202 nM
GUAUCGCUAGGAGGAUAUUCCAUUUUACAUAGAAAUGGCUAUGCGAAGUGAUGUUUCGAUUUACGGGAAGAAGGCCUAGUGAUAC [FMN B 22]	160 nM
UGUACCGAGUGAGGAUAUGUCGUCGAAAGACGAAAUGGAGUGAUGUUCCUUAAACUGCGAAAGCAGACAGAAGGUACUUGGUACU [FmnBS 29 G11+U75]	144 nM
GCAGUGAUGUUGCAAAAUGUCUGUGGUAGUCGAGGACCGGUACGGCCGCCACUCGGUGAGAACCUGCUAAUACAUCGAUAAGUGA [IX]	706 nM
UACAAACGUAGUGAUGUUACGUACUCUGAUACCAGACAACUCUAAGUCCCUUGGCAGCAGUCACUUAGCUUAUUAUUUUCUCAAA [JR_Nu_ExcTheophyA_Sub026]	106 nM
AUAUCUGAUAGCAGUGAUGUUGCUUCAGAUACCAGACGAGAUCAUGUCCCUUGGCAGCUGACACGGCACGUGCUAGGUUAGAUGA [Theo A Ex t2]	101 nM
GAUGAUCGCGCGGCCGCCACUGGUCAGUGAUGUUGACAUUAAUGCGCCGAGUAGUAACGGCGCAACAGGACCGGGCGCGAUGUAG [#11 K4 Tryptophan B Same State]	165 nM
AGAAAAGGGACGAUCGUCGAGUUGCCAGAAGGAGCGGUAAUUUUACCAGGUAGGUCGCUGGCCCAGUGAUGUUGGGCUUUUAAGA [Biisinaor]	105 nM
AAAGUUGAAAGUGAUACCAGACGAGUGAAGGGAAGUAAUUAAUUUGGAGUGAUGUUCCGCGUCCCUUGGCAGCAUUUUGUAAUUU [Exclusion Theophylline B GF 24]	166 nM
GUUACGCAUGGAAGGAGCGCGAAUUUAAUUAGUGAGUGAUGUUCACAUAAAAUAUAUAAUACGCAGGUAGGUCGCCAUGUGUAAC [Ex Arginine B K4 1]	80.8 nM
GACAACAGGGUGAGACUCACGGCGCCAGAAGGAGCGGUGAUUCCACCAGGUAGGUCGCUGGCCCAGUGAUGUUGGGCUUUGUGUC [Onoran]	129 nM
CACCAUGAAUUCUCUAGGAGUGAUGUUUUUCGAGGACCGGUACGGCCGCCACUCGGACGAGGACCGUGGGAGCGGCGAAAAGACU [ghgmullin]	206 nM
UUUAACGAGUGAUGUUCGUAAAGUAAUAGUUAGGAUAUCGUUUUUUCGAGAAGGAACUUCGAAGUGAUACGAAAGUAUCGCUUCG [FMN A 8]	136 nM
UGACUGGACUGAAGGAGCGGGCGAGACAAAGUCUCGAACUCGUAGUGAUGUUAUGAAAUAACCCAGGUAGGUCGCAGUCUAGUCU	1130 nM
AAAAUAAACCAGUGAUGUUGGUAUCCAGAUACCAGCGACGAAAGUCGCCCUUGGCAGCUGUGGACGUACAAAAUAAGUACGUCCU	930 nM
UAACGCUGACAGCAACAAUUCGGGCCUGAUACCAGCAAUUUUUCAUGCCCUUGGCAGCAGAGUGAUGUUUUCUGUCUAUUUAGUC [theeternabot_exclusion_KL_Theo_A_23]	628 nM
CGCCGCAAGGCGGGCCGGCCCACUCCGGAAGGAGCGCCCGCAAGGGCAGGUAGGUCGCCGGAGUGAUGUUCCGGUGGCCGGCCCG [#2 Exclusion - Arginine A Attempt #3 (Inspired by Omei)]	433 nM
AGCAGUGAUGUUGCAUUUAAAAUGACCGAUACCAGUAUCGAUAGAUACCCUUGGCAGCGGAUUUCCGCAACGACUAGGAAACUAG [Ex Theophylline A K4 15]	324 nM
CACGUUUACCAAGGAUAUGGUCUGCCGCGGAACCGUUCAAGUGAUGUUUGAUUCGAGUAUUAAUCUCCAGAAGGUGGUAGUACAG [theeternabot_exclusion_KL_FMN_B_6]	247 nM

same assay, conditions: Eterna round: R107; input ligand: arginine 13.2 mM

Sequence	apparent KD of K4 kissing-loop reporter
AAGUUAUGAUCUGAUACCAGACUUUAUCUUGUUUAUAAGUCAAGUGAUGUUUGACUAUUAGUCCCUUGGCAGCAGUAUUGUUUAA [#18 K4 Theophylline B Same State]	268 nM
AAGAAGAAUGGAAGGAGCGAGCAGAAAUAACCAGUGAUGUUGGAAAGCCUUAUUGCUUAAGCUCAGGUAGGUCGCCAAGAAAAGA [Mostly trial and error]	181 nM
GGAUAGGACAGAGGAUAUGGAGAGUCUACAAAGUAGGCUCAUAAUCCUUGAAUGGAAGUGAUGUUUCCAGAAGGCUGUCCUAUCG [FmnBX 17 - #SwitchBubble #StaticStem #Palindromic]	99.9 nM
UGCGCUAUGUCCUAAAACGUCCUCCGGGAUACCAGAGUCUUUUUAUUCCCUUGGCAGCUUGAGUGAUGUUUGAUGCCGUUCUUGU [srrevmullin]	215 nM
CGAGUCCUGAGGAGUGAUGUUCCUCGGCCACGAGGACCGGUACGGCCGCCACUCGUUACUCGGGCUUAGUGGCUAGCACUAAGCU [Tirete]	249 nM
GCUCAGGAGUGAUGUUCCAAGUGGUGUUAACGAGGACCGGUACGGCCGCCACUCGAUACGGCCGGACCGUAGGAUAAACUAGAGC [Same State - Tryptophan A (Freestyle 11)]	175 nM
CAGAACUUGUAUAUAGGGUAUAUAAGAGAUACCAGUCAAAUUAAAGACCCUUGGCAGCUCAGGCGAGUGAUGUUCGCAGGCUAAC [Exclusion Theophylline A GF 17]	111 nM
ACGACGCAUAGUGAUACCAGCAUUAUAUGAGUGAUGUUCUACCUAAAAUGGUAAUAAUUAUGCCCUUGGCAGCACUAUGCGUCAG [KL-SSTheoB3]	400 nM
AGUGCACUGUCAGGAUAUAUACAGUGAUGUUGUGUAUGUCGGCAAGUCAAAGACUUGCCAUUCUGUGUAGAAGGGACUGUGUACA [#04 K4 FMN B Exclusion]	203 nM
UGUCAUUGGUCGGAUACCAGUUGAUGACGAAUACGUCAACUGGAGUGAUGUUCCUAAAACAACCCUUGGCAGCCGACCGAUGACU [MAT - Same State Theophlline B - Mod of Eli - D1]	641 nM
